Test: soluble on expression in E. coli; label from the status in PepcDB or PDB records
For “MGSDKIHHHHHHAERISFFYPPFGEFSLSVDSLETFAKVGKIDRDFSFYASRATPQQLAQLRDLLQQRFNLTPTLVSQVTYSPIGEQLVQQLGKLLLTESRQNGFYAIRASLILAAADREGLTVVNLLRKFPSNTVRVNFTEGLRIVDDLSQLLKKKDEVVASLQKEAIAQAANSTVDFSKQPDLRSPGKFRWLKKSLELNDISRSRRLPVDIYLPTTQNSEPTDQNSPSPPFPLIVISHGLASDRSTFVYLAEHLASYGFAVAVLEHPGSNAKRFQEYFAGLASPPEPEEFIDRPLDIKYLLDELQRLEKSDPSLHGKLNFQQVGAIGQSFGGYTVLTLAGAKINFEQLRQDCNPNNSSFNLSLLLQCEASKLPQKNYELKDDRIKAIMAINPIDSLVLGEGGVSQIKMPVMLVAGSQDIFAPPVFEQIRPFTWLSDPNKYLALIENATHFSAIAEPTPENDVLPVPPALLGPDRDAVYSYLNALSVAFMETHLLNRPEYRSYLQPSYATFISKEPLNLSILQSLSVAQFNQIWSASIPQSAKLSNPQPTPR”, the “soluble on expression in E. coli” value was “not soluble”. In the case of “MGSDKIHHHHHHAICLRDDIGNYVIKWETDPVMEGIVKMTVSDNPDLFTNESPIIYANIKDGVATYITNDNISRKYFRLSFNDKYPRIIGARSAVMDSVQNFRDLGGYTSTNGKTVKWGKVFRSGELSSLSEWDSIRLDNLGIKTIIDLRTNQETLTAPIKYTKANILQIPISVGKIADAPQRVIEGRMRKGDAGVYMEDEYLQFVTDNTDQFAKVLEQFQNEDNYPILISCSYGKDRTGFLTAMLLAALDIPRDAIMEDYLTSNQYIDTSHLADIVKHLSTDAQESITVFLTANEGLMDLAFHKIKKEYGSTEKYLSKGLRLTDKKRERLKDILLY”, the “soluble on expression in E. coli” value is reported as “not soluble”. With “MGSDKIHHHHHHAKDKDAYRQYGINCIENGSYDDAVDAFQKALDQSVGSVGAEELDICYYKAKAQYLSGDVDGAIDTYTAIIDYNKDSDAYYLRGCIYFAKNDSDKGLKDFKTALSENNDNYELYLGVYETLSKYGMNDQGKEYLDNALKLKAKTADDYMQRGRIYTMLGDYDSAIKSLQKAIDEKLVKANYYMGEVYQKKGDNDSSQKYFKKYLDSGEADSYELMNMGQAQMDNGNYDTAITYFQNALELESVPNKQQITKAMIIAYEYSGDFATAKSKMEEYMKDYPDDEDAAREYQFLETR” the “soluble on expression in E. coli” value was “not soluble”. In the case of “MGSDKIHHHHHHALICNSAVTTTASTLYSWHQVRNTLAIMFNKRHIERHQLPCVLKVFNRFTGQEIGQLGNASENGLMVISQLPVLVGPDYELQLRMPLPGGGHQFVNLTASCLWCREDQTPGHYDSGFMLLQSPREYDDFVRSLRDYFSFRPANAPV”, the “soluble on expression in E. coli” value is reported as “not soluble”. With “MGSDKIHHHHHHAMDNYDYETVVTLIEPDCQDSLLLITKAQALKAMNRYPEAIGVLNSLILKDSTNTKVLIDLAECYKLTGNSRRAANCYQKAMNLQPENKFFRLQFIRSLLASEDYEEARTACHGWLERDSLSATGYKYLGQAYEGLQDAASAFLSYNIAYRRDSLDAQTVARIAGIFNNNQQFKDAVDVTEVYRLSDTTNIDVNRQNAKAYCMLKEYGTAVKRYESLKELGDRSFLTLYYLGVSHYGDNWFYGAYDNLKEAYQKNPMDVNVLYYLAKASARTSWKKEGVEYMEEAFRIAVPSDSMMVRLYDGLVECYDYAGDTKKEVEALEKLYIYTKKNSILYKIACLYDWKEDEKNAIRYYRKYMATVSEDQRYALDEDGNPVEDRITLYQQAWKRIKKIKEEGFFRGDIPTKSFPVEKKDTLALRHAK” the “soluble on expression in E. coli” value was “not soluble”. For “MGSDKIHHHHHHANQKSEHDHVAKVPKSYLPSGSVMAKEASANLKLSEKLSLIDGQWDSTTDDAASYEMDEQDYQAVATCRKSIEKLYDEKLYPVNLSPDYSNWYTWEAAAKKASDNTFNTYTAYYWIIRFEKYDGTQNHTIWMLEDGTIIMAKAHMKDISDMSEYKEVLQADDESQAENDLSAYKGYFDYSGIDFSKLNLISETTAVEQKNNESYEVLQFLQENEYVYAIHEK”, the “soluble on expression in E. coli” value was “not soluble”. With “MGSDKIHHHHHHAPSEAQQFTEFWTPGKPNPSICKSPLLVSTPLGLPRCLQASNVVKRLQKLEDIASLNDGNRAAATPGYQASVDYVKQTLQKAGYKVSVQPFPFTAYYPKGPGSLSATVPQPVTYEWEKDFTYLSQTEAGDVTAKVVPVDLSLGAGNTSTSGCEAEDFANFPAGSIALIQRGTCNFEQKAENAAAAGAAGVIIFNQGNTDDRKGLENVTVGESYEGGIPVIFATYDNGVAWSQTPDLQLHLVVDVVRKKTETYNVVAETRRGNPNNVVMVGAHLDSVFEGPGINDNGSGSAAQLEMAVLLAKALPVNKVRFAWWGAEEAGLVGSTHYVQNLAPEEKKKIKAYLNFDMIGSPNFGNFIYDGDGSDFGLQGPPGSAAIERLFEAYFRLRGQQSEGTEIDFRSDYAEFFNSGIAFGGLFTGAEGLKTEEQAQKYGGTAGKAYDECYHSKCDGIANINQDALEIHSDAMAFVTSWLSLSTKVVDDEIAAAGQKAQSRSLQMQKSASQIERWGHDFIK” the “soluble on expression in E. coli” value was “not soluble”. With “MGSDKIHHHHHHAQDKKKEFKMPTGYAGITHEMSEFYEPVPPVVTPGTDLKGGGFTAPSDAIVLFDGKDLSAWESVKGGAAEWDVHDGVFTVNKKKGDIQTKQKFNDFQMHIEWQVPTNITGESQSRGNSGIFLQGMYEVQVLDCYNNPTYVNGQTGSIYKQSIPLANAMRKPGEWNVYDIIYTAPTFKEDGSYRTHPTVTVIQNGVVLQNHTTILGTTEWIGFPQVKKHGAGPIILQSHGDPSEPISFRNIWIREL” the “soluble on expression in E. coli” value was “not soluble”. With “MGSDKIHHHHHHAQSKSSVYKPWSHGQLKVSKENRYLMNADGTPFFWLGDTGWLLPEKLNRDEAAYYLEHCRQAGFNVVQVQTINGVPAMNFYGQYSMIDGFNFKNIDRKGVYGYWDHMDYIIQKAEQNGIYIAMVCIWGGLVRSGKMNVEEAKAYGRFLGERYKDAPNIIWVIGGDTYADRNTEIWEALANSILAVDENHIMTFHPFGRTSSATHLNNKEWMDMNMFQSGHRRYGQKKGDGDTSVTGLEEDNWRYVEEALSMTPLKPVLDAEPSYEGIPQGLHDPAQPRWRDCDVRRYGYWSVFAGSCGHTYGHNNIMQFLKPGTPGGYGADGIEKPWYKAMQDPGFNQMKYLKNLMLTFPYFERVPDQSVIAGTNGNRYDRAIATRGKDYLLVYNYSGNPMSVDLTKISGAKKKVWWYSPKDGKLSFIGEFDSKITPFTYDGSYNRDNDQVLIAIDSSKNYISTEWLELPMVNQ” the “soluble on expression in E. coli” value was “not soluble”. In the case of “MGSDKIHHHHHHAQTPNTLTKKEKKAGWELLFNGKDFSGWRQCNGTAMPANWVIEDNAMKVFTGEGKKPGQGANGDILYQNKKFKNFELSVDWKASKMGNSGIFYYVREVPGKPIYYAAPEVQVLDNVDATDNKLANHLAGSLYDMLPADPKTVNPAGEWNTIVIRVKDGKVTHTQNGKKVVEYTLWSKEWDDLVANSKFKNFPGFTEGISKEGYIGLQDHGYPIWFRNIKIRELK”, the “soluble on expression in E. coli” value is reported as “not soluble”. With “MGSDKIHHHHHHARPQEKIKKKEISQSYSVSAGDRLQVENRYGNITVTHWNQNTVAIRVEVECKARSEERAQENLDRIQIETKKIGGIVSAVTTIKKEMNSNSNNESMTINYYIQMPPKLAADLNQKYGNINLPSDNNGNMDIHVKYGNLNAGNFTANAMIEAKYGNIEVGNLQDAQLDLGYVGTAKIRNAKDLTIDSKYSNLDIQDIQSLRMEIKYGNLTIESVSRLDMEIKYSDAKIGTLKDALNVSSLSYSNLKIRNLSPSFSKVNVESHYGNLEVALPAKTSFRIVAENMKYSSCDVNGFNITRKHFDDEDRDKNYTYEINGGKQPTIHFEGNRYGNLKVKAN” the “soluble on expression in E. coli” value was “not soluble”. With “MGSDKIHHHHHHASSCGDECPVEQPYSVRVSVKDKNYLNISQFPQLSQVDENLPFRTYAGTLYYALYDASTGALIRESAVVSTEGEEKEYTLTFPGVPDGDYKLAVWGNLTTDYPAGILHQDGKEHTDIYVTSGDLHFSPDYQTEELTLERTKGKLLLLCSNFPSEITRIEQNVSHVYQSTDAGLNYSGSTQVDKNVPFTSVLETLLAPTSAEGHSKLTLTFYTGGTRASETPYLKLPVMEMDMRRNEITAVSIDYNTSEGIWEIKMFIRGEWITIHRLDIF” the “soluble on expression in E. coli” value was “not soluble”. With “MGSDKIHHHHHHAVNCYVGNYYRADSIAEAAIDSDREVAVTIEKKDKRIQATQYDLKLKNYTITFAPQDKEKATKALIFYPGGRVQYTAYAPLMHELAKNNFVCILVHMPGNLAVLDQNAADGIIEKYKEIYPSIQEWYMGGHSLGGAMAAEYVAKHVDEFDGLYLFAAYSTADLSDSDLRVFSVYGSEDGVLDMDKYRKYRSNLPEDTYEYVIDGGCHSYFGSYGLQKGDGTPDVAFEEQIEMTVDFITYNSK” the “soluble on expression in E. coli” value was “not soluble”.

Reference: the DeepSol protein solubility set
